Laboratory results as given in publication PMC12756210, “Calcium signaling-mediated phosphorylation controls zinc allocation in Arabidopsis” (Stress Biology, 2025).

What was measured:
CIPK23-His = biological target: T1, CIPK23-His (Arabidopsis, UniProt Q93VD3 1-482); experiment: pull-down; GST-ZIP2-Loop (or GST) on glutathione beads incubated with His-CIPK3/9/23/26; eluate blotted with anti-His antibody; settings: both partners purified
T1 construct: amplified and cloned into pET30a; Printed both as CIPK3/9/23/26-His and as His-CIPK3/9/23/26, so the end of the tag is open; also called His-CIPK23; source: recombinant, cloned into pET30a
T1 sequence (looked up): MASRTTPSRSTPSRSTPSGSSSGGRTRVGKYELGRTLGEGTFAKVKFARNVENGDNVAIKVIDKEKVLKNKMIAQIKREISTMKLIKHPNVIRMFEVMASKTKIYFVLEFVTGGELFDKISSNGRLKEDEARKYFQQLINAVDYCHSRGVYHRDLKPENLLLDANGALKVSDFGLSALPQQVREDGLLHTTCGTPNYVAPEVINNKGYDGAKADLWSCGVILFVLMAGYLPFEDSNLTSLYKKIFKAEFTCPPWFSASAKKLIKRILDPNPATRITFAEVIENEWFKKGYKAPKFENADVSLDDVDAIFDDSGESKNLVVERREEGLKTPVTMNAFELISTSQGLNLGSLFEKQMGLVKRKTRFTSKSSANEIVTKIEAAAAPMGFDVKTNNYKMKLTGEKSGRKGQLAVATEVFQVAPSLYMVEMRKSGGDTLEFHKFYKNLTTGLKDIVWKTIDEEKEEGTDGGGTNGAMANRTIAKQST

CIPK26-His = biological target: T2, CIPK26-His (Arabidopsis, UniProt Q84VQ3 1-439); experiment: as above; settings: both partners purified
T2 construct: amplified and cloned into pET30a; Printed both as CIPK3/9/23/26-His and as His-CIPK3/9/23/26, so the end of the tag is open; also called His-CIPK26; source: recombinant, cloned into pET30a
T2 sequence (looked up): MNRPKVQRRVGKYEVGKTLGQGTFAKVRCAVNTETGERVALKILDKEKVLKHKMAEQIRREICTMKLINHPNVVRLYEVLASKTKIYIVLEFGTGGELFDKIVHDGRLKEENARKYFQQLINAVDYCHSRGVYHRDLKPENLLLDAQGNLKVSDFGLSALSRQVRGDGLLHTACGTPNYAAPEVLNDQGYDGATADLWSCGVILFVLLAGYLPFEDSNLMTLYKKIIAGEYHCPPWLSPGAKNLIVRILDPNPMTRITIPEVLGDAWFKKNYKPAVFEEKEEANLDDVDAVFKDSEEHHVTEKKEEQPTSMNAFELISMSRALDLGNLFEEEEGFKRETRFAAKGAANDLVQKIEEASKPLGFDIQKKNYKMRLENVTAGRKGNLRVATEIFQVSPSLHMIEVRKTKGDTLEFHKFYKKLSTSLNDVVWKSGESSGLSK

- binding result (CIPK23-His): binds
- binding result (CIPK26-His): binds
B1: GST-ZIP2-Loop (domain or fragment, Arabidopsis, UniProt Q9LTH9 151-203, looked up)
chain: VAAGSNNNHVGASVGESREDDDVAVKEEGRREIKSGVDVSQALIRTSGFGDTA
notes: Zn transporter ZIP2, Arabidopsis; the largest Loop domain, residues 151-203 (451-609 bp of the CDS); Printed as GST-ZIP2-Loop and as ZIP2-Loop-GST; pGEX4T-1 normally places GST at the N-terminus (surmised); also called ZIP2-Loop-GST; source: prokaryotic fusion protein (pGEX4T-1), purified
